Data taken from publication PMC7948508, “Comparison of human poly-N-acetyl-lactosamine synthase structure with GT-A fold glycosyltransferases supports a modular assembly of catalytic subsites” (The Journal of Biological Chemistry, 2020).

Biological target: the molecule itself
Assay: SEC-MALS; 20 μl at 1 mg/ml on Superdex 75; 25 mM HEPES (pH 7.4), 150 mM NaCl, 0.02% NaN3

B1: catalytic domain of human β-1,3-N-acetylglucosaminyltransferase 2 (B3GNT2, residues 34–397) (domain or fragment, UniProt Q9NY97 34-397, looked up)
chain: EKNGKGEVIIPKEKFWKISTPPEAYWNREQEKLNRQYNPILSMLTNQTGEAGRLSNISHLNYCEPDLRVTSVVTGFNNLPDRFKDFLLYLRCRNYSLLIDQPDKCAKKPFLLLAIKSLTPHFARRQAIRESWGQESNAGNQTVVRVFLLGQTPPEDNHPDLSDMLKFESEKHQDILMWNYRDTFFNLSLKEVLFLRWVSTSCPDTEFVFKGDDDVFVNTHHILNYLNSLSKTKAKDLFIGDVIHNAGPHRDKKLKYYIPEVVYSGLYPPYAGGGGFLYSGHLALRLYHITDQVHLYPIDDVYTGMCLQKLGLVPEKHKGFRTFDIEEKNKNNICSYVDLMLVHSRKPQEMIDIWSQLQSAHLKC
modifications: N-glycans cut by EndoF1, leaving only a single GlcNAc residue attached to each Asn side chain (sequons N79, N89, N127, N173, N219); at Asn219 a Manβ1,4-GlcNAcβ1,4-GlcNAcβ- glycan is seen in the crystal structure
notes: also called B3GNT2 cat domain; B3GNT2 catalytic domain; source: HEK293S (GnTI-) cells, transient transfection, secreted; purified (Ni2+-NTA, TEV protease + EndoF1 cleavage, second Ni2+-NTA, Superdex 75); not shown: 8xHis, N-terminal, cleaved; AviTag, N-terminal, cleaved; superfolder GFP, N-terminal, cleaved
- stoichiometry N: 2
